The target of series [1] is N-terminally Strep-tagII tagged wild-type QstR (Vibrio cholerae). Kind of series: SEC; analytical SEC, Superdex 200 10/300 GL; 100 mM Tris-HCl pH 8.0, 300 mM NaCl, 1 mM EDTA; 0.5 ml/min; size estimated from a standard curve of protein standards.
Series [2] deals with H-NS (15 kDa) (Vibrio cholerae A1552 (A1552-TntfoX)). Kind of series: DNA affinity pull-down, LC-MS/MS.
Series [3] relates to NdpA nucleoid-associated protein (38 kDa) (Vibrio cholerae A1552 (A1552-TntfoX)). The series is described as follows: DNA affinity pull-down, LC-MS/MS.
Series [4] deals with VCA0767 (TetR family transcriptional regulator, 29 kDa) (Vibrio cholerae A1552 (A1552-TntfoX)). The series is described as follows: DNA affinity pull-down, LC-MS/MS.
Series [5] relates to HupA, HU-alpha (9 kDa) (Vibrio cholerae A1552 (A1552-TntfoX)). The series is described as follows: DNA affinity pull-down, LC-MS/MS.

Take “N-terminally Strep-tagII tagged wild-type QstR (natural protein)”: the stoichiometry N in series [1] is 2.
comEA pull-down probe: the binding signal (total spectra) came out at 35 in series [2], 8 in series [3], 5 in series [4] and 8 in series [5].
For the substance gyrA pull-down probe, the binding signal (total spectra) in series [2] is 16; in series [3], 6; in series [4], 0; in series [5] it was 8.
With qstR pull-down probe, the binding signal (total spectra) is 185 in series [2], 10 in series [3], 0 in series [4] and 26 in series [5].

Source of the values: paper PMC6237807.
